Read-outs that look alike come from different tables or passages of the source.
B1: S306 (antibody)
heavy: QVQLVQSGAEVKKPGASVKVSCKASTYTFTSFGISWVRQAPGQGLEWMGWITTYSGDTNYAQKFQGRVTMTTDTSTNTAYMELRSLRSDDTAVYYCASDYFDSSGYYHSFDYWGQGTLVTVSS
light: EIVLTQSPDTLSLSPGERATLSCRASQSVSSYLAWYQQRPGQAPRLLIYDASKRATGIPARFSGSGSGTDFTLTISSLEPEDFAVYYCQQRSNWPPGCSFGQGTKVEIK
B2: SARS-CoV-2 S306 mAb (B cell supernatant) (antibody, V domains shown)
VH: B1 heavy
VL: B1 light

Columns and labels:
Conditions in all cases: remark: other sources report otherwise
[1] = target: T1, SARS-CoV-2 Spike (S) protein, strain BetaCoV/Wuhan-Hu-1/2019, full length (SARS-CoV-2 Wuhan-Hu-1), P0DTC2; assay: flow cytometry, ExpiCHO cells expressing SARS-CoV-2 S; % positive cells
[2] = target: T1, SARS-CoV-2 Spike (S) protein, strain …
[3] = target: T1, SARS-CoV-2 Spike (S) protein, strain …; assay: flow cytometry, ExpiCHO cells transfected with SARS-CoV-2 S; MFI (AF647)
[4] = target: T1, SARS-CoV-2 Spike (S) protein, strain …; remark: listed apart in the source

Row | Binder | EC50 (read off the curve) [1] [ng/mL] | EC50 (read off the curve) [2] [ng/mL] | EC50 (read off the curve) [3] [ng/mL] | POS [4]
1 | B1 | 1 | 200 | 200 | 
2 | B2 |  |  |  | 57.6

From patent US20230331821A1
